Source: patent publication US20200157237A1 (BROAD INSTITUTE, published 2020)
Each block holds one binder with its values, some of them ahead of it.

Columns and labels:
[1] = target: the molecule itself; experiment: purification of recombinant CD5L (FIG. 8A)
Il12rb1 = target: T1, Il12rb1 (mouse, UniProt Q60837 20-738); experiment: flow cytometry, His-tagged CD5L:p40 and anti-His antibody on T cells of wildtype or Il12rb1KO mice (FIG. 56A)
T1 construct: whole, on cells; Tie to CD5L:p40 rests on loss of staining and of effect in knockout cells; also called Ilrb1
T1 sequence (looked up): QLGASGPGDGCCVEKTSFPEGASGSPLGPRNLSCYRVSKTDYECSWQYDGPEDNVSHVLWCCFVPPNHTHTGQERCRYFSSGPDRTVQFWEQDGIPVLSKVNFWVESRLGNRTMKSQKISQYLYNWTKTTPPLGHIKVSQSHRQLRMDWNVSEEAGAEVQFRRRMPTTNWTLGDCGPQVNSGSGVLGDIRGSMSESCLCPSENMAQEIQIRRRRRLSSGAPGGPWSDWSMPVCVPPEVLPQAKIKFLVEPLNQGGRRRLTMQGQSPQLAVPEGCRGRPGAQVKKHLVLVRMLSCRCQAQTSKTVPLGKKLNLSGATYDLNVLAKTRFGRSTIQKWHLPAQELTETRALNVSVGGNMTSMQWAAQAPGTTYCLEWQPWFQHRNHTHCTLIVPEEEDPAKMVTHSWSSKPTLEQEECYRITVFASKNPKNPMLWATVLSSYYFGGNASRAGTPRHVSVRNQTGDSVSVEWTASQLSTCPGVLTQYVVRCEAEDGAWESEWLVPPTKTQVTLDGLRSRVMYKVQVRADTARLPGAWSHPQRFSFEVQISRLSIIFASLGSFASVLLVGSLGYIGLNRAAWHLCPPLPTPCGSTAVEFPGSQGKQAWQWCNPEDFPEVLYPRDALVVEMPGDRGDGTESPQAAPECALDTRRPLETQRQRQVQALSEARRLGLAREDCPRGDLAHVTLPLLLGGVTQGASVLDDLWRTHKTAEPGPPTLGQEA
Source text: FIG. 56A-F—Recombinant CD5L:p40 can bind to Th17 cells directly and alters T cell signaling pathways and metabolism. A) recombinant CD5L:p40 (his-tagged) were used to stain pathogenic Th17 cells (IL-1b+IL-6+IL-23),Th1 cells (IL-12) or Th0 cells differentiated from naïve T cells isolated from wildtype or Il12rb1KO mice followed by anti-His antibodies and analysis by flow cytometry. B-D) As Stat3 and Stat4 regulate IL-17 responses, we analyzed pStat3 and pStat4 expression. B-C) CD5L:p40 suppresses pStat3. 28 nM recombinant CD5L:p40 were used to stimulate naïve T cells in the presence of 10 ug/ml of anti-CD3 antibodies (TCR) with or without other indicated cytokines (B) or to stimulate Th17p cells (C) and cells were harvested for phosphoflow preparation and analysis of pStat3 at the indicated time points. D) CD5L:p40 suppresses pStat4 but not pTyk2. Western blotting analysis of pStat4 and pTyk2 expression by Th17p cells (equal protein loaded per lane) differentiated from naïve T cells isolated from wildtype mice and subjected to stimulation by either control (C), CD5L monomer (L), CD5L homodimer (LL), CD5L:p40 (L4) or p40:p40 homodimer (44) for the indicated time. E) CD5L:p40 suppresses pRictorY, pS6 and p38. To study whether CD5L:p40 influence other signaling pathways, we analysed several other phospho-proteins as indicated. […]

B1: recombinant CD5L monomer with His tag (mCD5L construct) (ligand)
chain: ESPTKVQLVGGAHRCEGRVEVEHNGQWGTVCDDGWDRRDVAVVCRELNCGAVIQTPRGASYQPPASEQRVLIQGVDCNGTEDTLAQCELNYDVFDCSHEEDAGAQCENPDSDLLFIPEDVRLVDGPGHCQGRVEVLHQSQWSTVCKAGWNLQVSKVVCRQLGCGRALLTYGSCNKSTQGKGPIWMGKMSCSGQEANLRSCLLSRLENNCTHGEDTWMECEDPFELKLVGGDTPCSGRLEVLHKGSWGSVCDDNWGEKEDQVVCKQLGCGKSLHPSPKTRKIYGPGAGRIWLDDVNCSGKEQSLEFCRHRLWGYHDCTHKEDVEVICTDFDVTGHHHHHHH
notes: Made by Biolegend in 293E cells, purified on Ni Sepharose and Superdex S200 (monomer fraction); also called soluble CD5L; sCD5L
- binding result [1]: binds

- binding result (Il12rb1): binds
B2: recombinant CD5L:p40 heterodimer (genetically linked mouse p40-linker-CD5L with His tag) (ligand)
chain: MWELEKDVYVVEVDWTPDAPGETVNLTCDTPEEDDITWTSDQRHGVIGSGKTLTITVKEFLDAGQYTCHKGGETLSHSHLLLHKKENGIWSTEILKNFKNKTFLKCEAPNYSGRFTCSWLVQRNMDLKFNIKSSSSSPDSRAVTCGMASLSAEKVTLDQRDYEKYSVSCQEDVTCPTAEETLPIELALEARQQNKYENYSTSFFIRDIIKPDPPKNLQMKPLKNSQVEVSWEYPDSWSTPHSYFSLKFFVRIQRKKEKMKETEEGCNQKGAFLVEKTSTEVQCKGGNVCVQAQDRYYNSSCSKWACVPCRVRSGGGSGGGSGGGSGGESPTKVQLVGGAHRCEGRVEVEHNGQWGTVCDDGWDRRDVAVVCRELNCGAVIQTPRGASYQPPASEQRVLIQGVDCNGTEDTLAQCELNYDVFDCSHEEDAGAQCENPDSDLLFIPEDVRLVDGPGHCQGRVEVLHQSQWSTVCKAGWNLQVSKVVCRQLGCGRALLTYGSCNKSTQGKGPIWMGKMSCSGQEANLRSCLLSRLENNCTHGEDTWMECEDPFELKLVGGDTPCSGRLEVLHKGSWGSVCDDNWGEKEDQVVCKQLGCGKSLHPSPKTRKIYGPGAGRIWLDDVNCSGKEQSLEFCRHRLWGYHDCTHKEDVEVICTDFDVTGHHHHHHHHGGQ
notes: also called mCD5L:p40; rCD5L:p40
